Experiment [1] addresses T1, recombinant human soluble gpNMB (recombinant human gpNMB-FLAG-His) (human, UniProt Q14956 23-498).
T1 sequence: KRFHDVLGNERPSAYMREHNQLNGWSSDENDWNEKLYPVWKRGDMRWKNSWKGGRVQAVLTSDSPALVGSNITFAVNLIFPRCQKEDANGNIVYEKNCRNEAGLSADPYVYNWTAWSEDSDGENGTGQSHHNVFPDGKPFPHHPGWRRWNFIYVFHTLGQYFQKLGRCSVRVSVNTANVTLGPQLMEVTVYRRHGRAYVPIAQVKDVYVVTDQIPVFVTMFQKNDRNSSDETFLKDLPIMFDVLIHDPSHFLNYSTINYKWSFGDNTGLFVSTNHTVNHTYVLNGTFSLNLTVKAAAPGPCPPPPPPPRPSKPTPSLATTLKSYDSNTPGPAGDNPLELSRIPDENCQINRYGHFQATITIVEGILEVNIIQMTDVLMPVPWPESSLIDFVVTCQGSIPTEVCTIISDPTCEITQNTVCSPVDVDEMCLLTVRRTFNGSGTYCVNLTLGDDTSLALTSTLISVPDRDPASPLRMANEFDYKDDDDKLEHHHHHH
The experiment is described as follows: antigen ELISA, vs hGPN18-2_H2L3. A general note: In an ELISA, binding on a coated surface is turned into a signal by an enzyme label.

For experiment [2], the target named is T1, recombinant human soluble gpNMB …. The experiment is described as follows: antigen ELISA.
Experiment [3] shares this target. The experiment is described as follows: antigen ELISA. This is another data set of the same source.
The target is the same in experiment [4]. Description: antigen ELISA, vs hGPN06-1_H1L1.

Where two headings read alike, the source gives them in different places.

Usually EC50 stands for the concentration at which the effect is half-maximal.

B1: hGPN18-2_H2L3 VH D52A (antibody, V domains shown)
VH: QVQLVQSGPGLVQPTQTLTLTCSFSGFSLSTSVMGVGWIRQPSGKGLEWLAAIWWDDDKDYNPSLKSRLTISKDTSKNQVVLTMTNMDTVDTATYYCARTYYSNYEYYGMDYWGQGTLVTVSS
VL: DIVMTQSPDSLAVSLGERATINCRSSQTIILSNGNTYLEWYQQKPGQPPKLLIYKVSNRFSGVPDRFSGSGSGTDFTLTISSLQAEDVAVYYCFQGSHVPFTFGSGTKLEIKR
For B1, the Relative binding activity in experiment [1] was determined as 0.05. For the same molecule, the EC50 in experiment [2] came to 100 nM.

B2: hGPN18-2_H2L3 VH G37A (antibody, V domains shown)
VH: QVQLVQSGPGLVQPTQTLTLTCSFSGFSLSTSVMGVAWIRQPSGKGLEWLADIWWDDDKDYNPSLKSRLTISKDTSKNQVVLTMTNMDTVDTATYYCARTYYSNYEYYGMDYWGQGTLVTVSS
VL: DIVMTQSPDSLAVSLGERATINCRSSQTIILSNGNTYLEWYQQKPGQPPKLLIYKVSNRFSGVPDRFSGSGSGTDFTLTISSLQAEDVAVYYCFQGSHVPFTFGSGTKLEIKR
In the case of B2, the Relative binding activity in experiment [1] amounted to 0.87. Also, in experiment [2], the EC50 worked out at 3.32 nM.

B3: hGPN18-2_H2L3 VH G26A (antibody, V domains shown)
VH: QVQLVQSGPGLVQPTQTLTLTCSFSAFSLSTSVMGVGWIRQPSGKGLEWLADIWWDDDKDYNPSLKSRLTISKDTSKNQVVLTMTNMDTVDTATYYCARTYYSNYEYYGMDYWGQGTLVTVSS
VL: DIVMTQSPDSLAVSLGERATINCRSSQTIILSNGNTYLEWYQQKPGQPPKLLIYKVSNRFSGVPDRFSGSGSGTDFTLTISSLQAEDVAVYYCFQGSHVPFTFGSGTKLEIKR
As to B3, in experiment [1], the Relative binding activity was 0.84. The EC50 in experiment [2] amounted to 3.92 nM.

B4: hGPN18-2_H2L3 VH D57A (antibody, V domains shown)
VH: QVQLVQSGPGLVQPTQTLTLTCSFSGFSLSTSVMGVGWIRQPSGKGLEWLADIWWDADKDYNPSLKSRLTISKDTSKNQVVLTMTNMDTVDTATYYCARTYYSNYEYYGMDYWGQGTLVTVSS
VL: DIVMTQSPDSLAVSLGERATINCRSSQTIILSNGNTYLEWYQQKPGQPPKLLIYKVSNRFSGVPDRFSGSGSGTDFTLTISSLQAEDVAVYYCFQGSHVPFTFGSGTKLEIKR
For B4, the Relative binding activity in experiment [1] is 0.86. Further, the EC50 in experiment [2] turned out to be 5.61 nM.

B5: hGPN18-2_H2L3 VH D56A (antibody, V domains shown)
VH: QVQLVQSGPGLVQPTQTLTLTCSFSGFSLSTSVMGVGWIRQPSGKGLEWLADIWWADDKDYNPSLKSRLTISKDTSKNQVVLTMTNMDTVDTATYYCARTYYSNYEYYGMDYWGQGTLVTVSS
VL: DIVMTQSPDSLAVSLGERATINCRSSQTIILSNGNTYLEWYQQKPGQPPKLLIYKVSNRFSGVPDRFSGSGSGTDFTLTISSLQAEDVAVYYCFQGSHVPFTFGSGTKLEIKR
Take B5: the Relative binding activity in experiment [1] came out at 0.63. Besides, the EC50 in experiment [2] was found to be 8.98 nM.

B6: hGPN18-2_H2L3 VH D58A (antibody, V domains shown)
VH: QVQLVQSGPGLVQPTQTLTLTCSFSGFSLSTSVMGVGWIRQPSGKGLEWLADIWWDDAKDYNPSLKSRLTISKDTSKNQVVLTMTNMDTVDTATYYCARTYYSNYEYYGMDYWGQGTLVTVSS
VL: DIVMTQSPDSLAVSLGERATINCRSSQTIILSNGNTYLEWYQQKPGQPPKLLIYKVSNRFSGVPDRFSGSGSGTDFTLTISSLQAEDVAVYYCFQGSHVPFTFGSGTKLEIKR
Turning to B6, the Relative binding activity in experiment [1] was 0.5. The EC50 in experiment [2] amounted to 10.2 nM.

B7: hGPN18-2_H2L3 VH F27A (antibody, V domains shown)
VH: QVQLVQSGPGLVQPTQTLTLTCSFSGASLSTSVMGVGWIRQPSGKGLEWLADIWWDDDKDYNPSLKSRLTISKDTSKNQVVLTMTNMDTVDTATYYCARTYYSNYEYYGMDYWGQGTLVTVSS
VL: DIVMTQSPDSLAVSLGERATINCRSSQTIILSNGNTYLEWYQQKPGQPPKLLIYKVSNRFSGVPDRFSGSGSGTDFTLTISSLQAEDVAVYYCFQGSHVPFTFGSGTKLEIKR
On to B7, for which the Relative binding activity in experiment [1] was 0.69. The EC50 in experiment [2] came out at 5.47 nM.

B8: hGPN18-2_H2L3 VH D60A (antibody, V domains shown)
VH: QVQLVQSGPGLVQPTQTLTLTCSFSGFSLSTSVMGVGWIRQPSGKGLEWLADIWWDDDKAYNPSLKSRLTISKDTSKNQVVLTMTNMDTVDTATYYCARTYYSNYEYYGMDYWGQGTLVTVSS
VL: DIVMTQSPDSLAVSLGERATINCRSSQTIILSNGNTYLEWYQQKPGQPPKLLIYKVSNRFSGVPDRFSGSGSGTDFTLTISSLQAEDVAVYYCFQGSHVPFTFGSGTKLEIKR
Take B8: the Relative binding activity in experiment [1] amounted to 0.98. In experiment [2], the EC50 was 3.13 nM.

B9: hGPN18-2_H2L3 VH G35A (antibody, V domains shown)
VH: QVQLVQSGPGLVQPTQTLTLTCSFSGFSLSTSVMAVGWIRQPSGKGLEWLADIWWDDDKDYNPSLKSRLTISKDTSKNQVVLTMTNMDTVDTATYYCARTYYSNYEYYGMDYWGQGTLVTVSS
VL: DIVMTQSPDSLAVSLGERATINCRSSQTIILSNGNTYLEWYQQKPGQPPKLLIYKVSNRFSGVPDRFSGSGSGTDFTLTISSLQAEDVAVYYCFQGSHVPFTFGSGTKLEIKR
In the case of B9, the Relative binding activity in experiment [1] turned out to be 0.68. Also, the EC50 in experiment [2] was 5.16 nM.

B10: hGPN18-2_H2L3 VH I53A (antibody, V domains shown)
VH: QVQLVQSGPGLVQPTQTLTLTCSFSGFSLSTSVMGVGWIRQPSGKGLEWLADAWWDDDKDYNPSLKSRLTISKDTSKNQVVLTMTNMDTVDTATYYCARTYYSNYEYYGMDYWGQGTLVTVSS
VL: DIVMTQSPDSLAVSLGERATINCRSSQTIILSNGNTYLEWYQQKPGQPPKLLIYKVSNRFSGVPDRFSGSGSGTDFTLTISSLQAEDVAVYYCFQGSHVPFTFGSGTKLEIKR
For the molecule B10, the Relative binding activity in experiment [1] came to 0.6. Further, in experiment [2], the 50% effective concentration (EC50) is 6.94 nM.

B11: hGPN06-1_H1L1 VL S92A (antibody, V domains shown)
VH: QVQLVQSGAEVKKPGASVKVSCKASGYTFTDNWMGWVKQRPGQGLEWIGAIDPSDSFTNYNQNFKGRVTMTVDTSISTAYMELSRLRSDDSAVYFCTRSGYYGSPKLGGDYWGQGTLVTVSS
VL: EIVLTQSPSSLSASVGDRVTITCSASSSISYMHWYQQKSGTAPKLLIYSTSNLASGVPSRFSGSGSGTDFTFTISSLQPEDAATYYCHQWNAYPCTFGGGTKLEIK
Take B11: in experiment [3], the EC50 stood at 1.86 nM. The Relative binding activity in experiment [4] is 0.19.

B12: hGPN06-1_H1L1 VL T96A (antibody, V domains shown)
VH: QVQLVQSGAEVKKPGASVKVSCKASGYTFTDNWMGWVKQRPGQGLEWIGAIDPSDSFTNYNQNFKGRVTMTVDTSISTAYMELSRLRSDDSAVYFCTRSGYYGSPKLGGDYWGQGTLVTVSS
VL: EIVLTQSPSSLSASVGDRVTITCSASSSISYMHWYQQKSGTAPKLLIYSTSNLASGVPSRFSGSGSGTDFTFTISSLQPEDAATYYCHQWNSYPCAFGGGTKLEIK
Regarding B12, the EC50 in experiment [3] amounted to 1.03 nM. In experiment [4], the Relative binding activity is 0.83.

B13: hGPN06-1_H1L1 VL T50A (antibody, V domains shown)
VH: QVQLVQSGAEVKKPGASVKVSCKASGYTFTDNWMGWVKQRPGQGLEWIGAIDPSDSFTNYNQNFKGRVTMTVDTSISTAYMELSRLRSDDSAVYFCTRSGYYGSPKLGGDYWGQGTLVTVSS
VL: EIVLTQSPSSLSASVGDRVTITCSASSSISYMHWYQQKSGTAPKLLIYSASNLASGVPSRFSGSGSGTDFTFTISSLQPEDAATYYCHQWNSYPCTFGGGTKLEIK
For the molecule B13, the concentration giving a half-maximal response (EC50) in experiment [3] came out at 3.19 nM. Further, the Relative binding activity in experiment [4] turned out to be 0.3.

B14: hGPN06-1_H1L1 VL W90A (antibody, V domains shown)
VH: QVQLVQSGAEVKKPGASVKVSCKASGYTFTDNWMGWVKQRPGQGLEWIGAIDPSDSFTNYNQNFKGRVTMTVDTSISTAYMELSRLRSDDSAVYFCTRSGYYGSPKLGGDYWGQGTLVTVSS
VL: EIVLTQSPSSLSASVGDRVTITCSASSSISYMHWYQQKSGTAPKLLIYSTSNLASGVPSRFSGSGSGTDFTFTISSLQPEDAATYYCHQANSYPCTFGGGTKLEIK
As for B14, the EC50 in experiment [3] turned out to be 122 nM. Also, in experiment [4], the Relative binding activity stood at 0.13.

(Values after patent publication EP4772193A1 (Teijin Pharma Limited, dated 2026).)
